Laboratory results from FireProtDB (doi:10.1021/bi990285w).
Where “and” joins values, the source holds several entries; their conditions need not be identical. Equal entries are not always repeated.

Conditions: Bacillus amyloliquefaciens; pH 8; 22 °C; GdnHCl; Fluorescence; phosphate 20 mM; whole UniProt chain shown

B1: Barstar wild type, P11540 (protein)
chain: MKKAVINGEQIRSISDLHQTLKKELALPEYYGENLDALWDCLTGWVEYPLVLEWRQFEQSKQLTENGAESVLQVFREAKAEGCDITIILS
With B1 the denaturant m value was 2.5 kcal/mol/M and 1.45 kcal/mol/M and 2.2 kcal/mol/M and the unfolding free energy was 5.1 kcal/mol and 2.1 kcal/mol and 5.6 kcal/mol.
